In patent US20050239074:

Target: T1, human parathyroid hormone, P01270
T1 chain: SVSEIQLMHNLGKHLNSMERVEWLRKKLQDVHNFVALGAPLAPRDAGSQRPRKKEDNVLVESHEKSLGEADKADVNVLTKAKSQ

B1: Hansenula polymorpha yapsin1 (protein)
chain: DPQFVKLEASVLRGSTYKDSQKGAKPFMLEKRADDGSVTMELQNAQSFYQVEIEIGSDKQKVGVLIDTGSSDLWVMNSNNSYCSSSSTKKLKRDGPADALQKGRDLSDLYNFNSPNEDNNAKGFLGGWGDLTTVETATQDETQTALAAQATVDCSLYGTFNPSTSNSFHNNGTTFEISYADRTFARGTWGYDDVTFNGVTVNDLSLAVADETDSSTGVFGIGLRELETTYSGGGPQHYIYDNLPFKMVDQGLINRAAYSVYLNSTESSTASILFGAVDQSKYTGSLGLLPIINTAASYGYQKPLRLQITLSAITVSDSRGQQASIGSGAAAALLDTGTTLTYAPSEIVEKLAETLGFDYSSSVGAYVARCRDVDSYAVNFDFQGKVIEAPLSSFLIALQTNSGEVSSYCALGIFSSGDESFTLGDTFLRNAYFVADLEGYQIAIANVNLNPGAEQIEVISGNSIPSASSVSDYSNTWGASATALDTDRPTTLGSVTAVGDERVTSTKKVSSVKTSTSSGSGSTSESSTSSSHSSNGPRTVGFSLCAVLCAFLISILVV
B1 was tested, and the “degradation level of hPTH by the yapsin activity (culture supernatant incubated with hPTH for 2, 4 and 6 hours at 37 C, SDS-polyacrylamide gel)” value was “in the culture fluid of the wild type, it was already hard to observe hPTH remaining in the culture supernatant after 2 hour cultivation, while in the culture supernatant of hpyps1Δ mutant strain, a substantial amount of hPTH was observed”.
